In the test the target is T1, GFRα1 receptor (Homo sapiens, UniProt P56159).
T1 sequence (P56159 25-429): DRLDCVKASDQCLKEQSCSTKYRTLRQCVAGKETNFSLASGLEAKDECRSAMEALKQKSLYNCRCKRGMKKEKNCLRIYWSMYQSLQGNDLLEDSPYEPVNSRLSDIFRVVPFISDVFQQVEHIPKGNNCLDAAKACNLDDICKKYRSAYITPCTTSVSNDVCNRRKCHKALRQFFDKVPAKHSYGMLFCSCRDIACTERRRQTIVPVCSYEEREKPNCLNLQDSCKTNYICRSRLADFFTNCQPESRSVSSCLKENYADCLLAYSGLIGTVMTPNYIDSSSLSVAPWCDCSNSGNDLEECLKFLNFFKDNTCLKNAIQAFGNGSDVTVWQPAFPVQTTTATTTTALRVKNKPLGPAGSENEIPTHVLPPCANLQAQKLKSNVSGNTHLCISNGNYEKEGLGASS
In words: Surface plasmon resonance (SPR) binding analysis, GFRα1. Conditions: immobilized receptor protein, 25° C., PBS pH 7.4. Here is the method: Analysis of binding was performed employing a BIAcoreX instrument (Biosensor AB, Uppsala, Sweden) at 25° C. using 10 mM pH 7.4 sodium phosphate containing 150 mM NaCl as running buffer (phosphate-buffered saline, PBS). The flow-rate was 5 μl/min. Data were analysed by non-linear curve-fitting using the manufacturer's software. The receptor proteins, e.g. NCAM Ig1-Ig2 and GFR proteins, were immobilized on a sensor chip CM5 using an amine coupling kit (Biosensor AB) as follows: the chip was activated by 20 μl activation solution; the protein was immobilized using 12 μl 20 μg/ml protein in 10 mM sodium phosphate buffer pH 6.0; the chip was blocked by 35 μl blocking solution. Various peptides at the indicated concentrations were injected into the sensor chip. The curve corresponding to the difference between binding to receptor and a blank chip was used for analysis.
Background: Surface plasmon resonance follows binding to a sensor surface in real time, without labels.

Turning to “ETTYDKILKNLSRNR (listed as Homo sapiens) [G2, GDNF fragment]”, the “binding to the GFRα1 receptor (SPR)” value is “binding”.

The values are drawn from patent publication US8138148B2, “GDNF derived peptides” (Copenhagen University, priority 2005, dated 2012).
